Assay results as given in paper PMC3934934, “The Self-Interaction of a Nodavirus Replicase Is Enhanced by Mitochondrial Membrane Lipids” (PLoS ONE, 2014).

What was measured:
Settings in all cases: one partner purified
[1] = target: T1, MBP-tagged full-length (FL) WhNV protein A (Wuhan nodavirus (WhNV), UniProt Q3KSM3 1-1014); experiment: pull-down
T1 construct: also called MBP-protA; 1–1014 MBP/protA; source: E. coli strain TB1, purified (amylose resin); not shown: MBP, N-terminal, kept
T1 sequence: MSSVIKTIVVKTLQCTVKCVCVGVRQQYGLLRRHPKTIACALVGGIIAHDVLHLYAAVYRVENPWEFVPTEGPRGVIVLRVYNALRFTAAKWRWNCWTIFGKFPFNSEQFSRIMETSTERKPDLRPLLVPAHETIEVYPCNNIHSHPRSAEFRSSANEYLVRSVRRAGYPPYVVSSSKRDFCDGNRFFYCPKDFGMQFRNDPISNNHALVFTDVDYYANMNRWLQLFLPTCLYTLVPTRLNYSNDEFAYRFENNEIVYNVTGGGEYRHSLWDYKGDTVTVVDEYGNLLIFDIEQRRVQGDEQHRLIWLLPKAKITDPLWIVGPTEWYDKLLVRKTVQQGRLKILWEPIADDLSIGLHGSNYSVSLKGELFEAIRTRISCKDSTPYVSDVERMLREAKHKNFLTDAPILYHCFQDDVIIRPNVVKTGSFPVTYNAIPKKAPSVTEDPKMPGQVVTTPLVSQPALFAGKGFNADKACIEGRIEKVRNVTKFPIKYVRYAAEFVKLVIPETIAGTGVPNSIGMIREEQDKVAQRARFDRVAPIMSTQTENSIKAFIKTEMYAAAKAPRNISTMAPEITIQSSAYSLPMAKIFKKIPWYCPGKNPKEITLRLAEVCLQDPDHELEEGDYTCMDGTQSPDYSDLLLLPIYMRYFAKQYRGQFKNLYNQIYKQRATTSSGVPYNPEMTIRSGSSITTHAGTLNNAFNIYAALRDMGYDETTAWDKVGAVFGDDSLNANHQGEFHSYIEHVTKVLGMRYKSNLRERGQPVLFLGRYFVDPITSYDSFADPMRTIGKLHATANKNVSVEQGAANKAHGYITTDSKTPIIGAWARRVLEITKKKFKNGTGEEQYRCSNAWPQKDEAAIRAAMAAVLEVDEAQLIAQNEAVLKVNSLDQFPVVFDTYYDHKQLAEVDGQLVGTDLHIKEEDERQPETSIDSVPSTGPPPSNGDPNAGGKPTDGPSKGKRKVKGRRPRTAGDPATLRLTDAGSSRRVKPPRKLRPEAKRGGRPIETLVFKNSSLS

[2] = target: T2, MBP-protA fragment aa 255–480 (Wuhan nodavirus (WhNV), UniProt Q3KSM3 255-480); experiment: pull-down; MBP fusion protein (1 µM) held on amylose resin, His-tagged protein (1 µM) in vitro translated in rabbit reticulocyte lysate; room temperature, 4 hrs; no lipids; Western blot with anti-His; signals given as % of FL to FL protein A self-interaction
T2 construct: source: E. coli strain TB1, purified (amylose resin); not shown: MBP, N-terminal, kept
T2 sequence: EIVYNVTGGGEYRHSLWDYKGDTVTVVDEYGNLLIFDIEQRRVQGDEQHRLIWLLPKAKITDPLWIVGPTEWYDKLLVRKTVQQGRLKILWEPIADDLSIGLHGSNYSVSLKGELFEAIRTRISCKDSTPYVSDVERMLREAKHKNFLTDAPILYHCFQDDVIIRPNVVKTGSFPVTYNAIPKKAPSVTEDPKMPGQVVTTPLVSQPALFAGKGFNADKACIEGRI

[3] = target: T3, MBP-protA fragment aa 1–254 (Wuhan nodavirus (WhNV), UniProt Q3KSM3 1-254); experiment: as above
T3 construct: also called 1–254 MBP/protA; source: E. coli strain TB1, purified (amylose resin); not shown: MBP, N-terminal, kept
T3 sequence: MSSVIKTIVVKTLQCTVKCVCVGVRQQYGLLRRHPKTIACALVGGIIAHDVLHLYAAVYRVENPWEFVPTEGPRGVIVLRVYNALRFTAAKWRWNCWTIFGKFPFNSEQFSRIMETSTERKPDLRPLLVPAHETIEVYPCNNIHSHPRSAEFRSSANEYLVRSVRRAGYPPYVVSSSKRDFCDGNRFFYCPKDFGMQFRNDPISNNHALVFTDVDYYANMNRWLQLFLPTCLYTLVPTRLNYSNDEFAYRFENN

B1: His-tagged WhNV protein A, in vitro translated (natural protein)
chain: T1 sequence
notes: also called His-protA; FL His-protA; source: in vitro translated in nuclease-treated rabbit reticulocyte lysates
In the case of B1, the “fold of the self-interaction without MMLs, at 1 µg/µl MMLs” value [1] is reported as about 4.6 fold, the “fold of the self-interaction without MMLs, at 2 µg/µl MMLs” value [1] is reported as about 9 fold and the “fold of the self-interaction without MMLs, at 5 µg/µl MMLs” value [1] is reported as about 12 fold. The “self-interaction efficiency, % of FL to FL protein A self-interaction” value [2] was 52% and the “self-interaction efficiency, % of FL to FL protein A self-interaction” value [3] was 67%.
